Experimental data reported in patent US5786328, “Use of kunitz type plasma kallikrein inhibitors” (Genentech, Inc., dated 1998).
Where no end group is shown, it is not given here.

Experiments:
Experiment in all cases: cell-based or functional assay
Human Factor XIIa = molecular target: T1, Human Factor XIIa (human, UniProt P00748)
T1 sequence 1: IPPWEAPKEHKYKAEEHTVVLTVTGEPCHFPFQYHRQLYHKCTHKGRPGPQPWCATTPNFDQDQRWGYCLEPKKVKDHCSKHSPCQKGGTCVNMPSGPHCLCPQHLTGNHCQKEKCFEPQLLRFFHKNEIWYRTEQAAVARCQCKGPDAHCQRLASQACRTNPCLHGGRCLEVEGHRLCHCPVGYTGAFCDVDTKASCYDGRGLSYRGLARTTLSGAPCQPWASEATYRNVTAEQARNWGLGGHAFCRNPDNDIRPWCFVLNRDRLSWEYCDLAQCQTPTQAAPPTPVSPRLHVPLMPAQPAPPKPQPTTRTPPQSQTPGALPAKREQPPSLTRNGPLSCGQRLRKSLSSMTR
T1 sequence 2: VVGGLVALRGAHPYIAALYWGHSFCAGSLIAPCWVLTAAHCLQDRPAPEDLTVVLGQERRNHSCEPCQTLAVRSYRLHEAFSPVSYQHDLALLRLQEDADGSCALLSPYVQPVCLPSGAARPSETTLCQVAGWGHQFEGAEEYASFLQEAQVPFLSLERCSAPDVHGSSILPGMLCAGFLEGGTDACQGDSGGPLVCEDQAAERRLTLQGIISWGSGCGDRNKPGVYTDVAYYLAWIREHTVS

Human plasmin = Human plasmin (human, UniProt P00747)
Human Factor Xa = Human Factor Xa (human, UniProt P00742)
Human thrombin = Human thrombin (human, UniProt P00734)
[1] = molecular target: Human activated protein C (human, UniProt P04070)

fraction of remaining proteolytic activity with 100 nM inhibitor (Human Factor XIIa): 0.97 fraction of uninhibited rate
fraction of remaining proteolytic activity with 100 nM inhibitor (Human plasmin): 0.62 fraction of uninhibited rate
fraction of remaining proteolytic activity with 100 nM inhibitor (Human Factor Xa): 0.89 fraction of uninhibited rate
fraction of remaining proteolytic activity with 100 nM inhibitor (Human thrombin): 0.92 fraction of uninhibited rate
fraction of remaining proteolytic activity with 100 nM inhibitor [1]: 0.87 fraction of uninhibited rate
B1: APPI (Alzheimer's amyloid β-protein precursor inhibitor) (other)
chain: VREVCSEQAETGPCRAMISRWYFDVTEGKCAPFFYGGCGGNRNNFDTEEYCMAVCGSA
modifications: not fully specified (bridges); ends and bridges not checked
